From the RNAGym collection of RNA variant scans (doi:10.7554/elife.80360) come the findings set out here.

First the molecules themselves.
B1: CPEB3 Ribozyme (parent)
chain: GGGGGCCACAGCAGAAGCGUUCACGUCGCGGCCCCUGUCAGAUUCUGGUGAAUCUGCGAAUUCUGCUGU

Variants of B1 are the subject of the data set. Briefly: self-cleavage, relative activity (ratio to wild type); higher = more cleavage; co-transcriptional.
With GGGGGCCACAGCAGAAGCGAUCACGUCGCGGCCCCUGUCAGAUUCUGGUGAAUCUGCGAAUACUGCUGU, the self-cleavage came to 0.0929.

Turning to GGGGGCCACAGCAGAAGCGCUCACGUCGCGGCCCCUGUCAGAUUCUGGUGAAUCUGCGAAUUCUGCUGU, the self-cleavage is 0.222.

Consider GGGGGCCACAGCAGAAGCGCUCUCGUCGCGGCCCCUGUCAGAUUCUGGUGAAUCUGCGAAUUCUGCUGU, for which the self-cleavage is 0.257.

In the case of GGGGGCCACAGCAGAAGCGCUCCCGUCGCGGCCCCUGUCAGAUUCUGGUGAAUCUGCGAAUUCUGCUGU, the self-cleavage amounted to 0.243.

For GGGGGCCACAGCAGAAGCGACCACGUCGCGGCCCCUGUCAGAUUCUGGUGAAUCUGCGAAUUCUGCUGU, the self-cleavage is 0.0963.

Turning to GGGGGCCACAGCAGAAGCGAUCACGUCGCGGCCCCUGGCAGAUUCUGGUGAAUCUGCGAAUUCUGCUGU, the self-cleavage was 0.23.

As for GGGGGCCACAGCAGAAGCGCUCACGUCGCGGACCCUGUCAGAUUCUGGUGAAUCUGCGAAUUCUGCUGU, the self-cleavage stood at 0.192.

For the variant GGGGGCCACAGCAGAAGCGAUCACGUCGCGGCCCCUGUCAGAUUCUGGUGAAUCUGCGAAUUCUGCCGU, the self-cleavage amounted to 0.127.

Turning to GGGGGCCACAGCAGAAGCGAUCACGUCGCGGCCCCUGUCAGAUUCUGGUGAAUCUGCGAAUUCUGCGGU, the self-cleavage was found to be 0.271.

As to GGGGGCCACAGCAGAAGCGCUCACGUCGCGGCCCCUGUCAGGUUCUGGUGAAUCUGCGAAUUCUGCUGU, the self-cleavage was determined as 0.161.

GGGGGCCACAGCAGAAGCGAUCACGUCGCGGCCCCUGUCAGAUUCUGGUGAAUCAGCGAAUUCUGCUGU: the self-cleavage amounted to 0.237.

For the variant GGGGGCCACAGCAGAAGCGAUCACGUCGCGGCCCCUGUCAGAUUCUGGUGAAUCCGCGAAUUCUGCUGU, the self-cleavage was determined as 0.118.

For the variant GGGGGCCACAGCAGAAGCGAUCACGUCGCGGCCCCUGUCAGAUUCUGGUGAAUCGGCGAAUUCUGCUGU, the self-cleavage turned out to be 0.112.

As for GGGGGCCACAGCAGAAGCGCUCACGUCGCGGCCCCUGUCAGAUUCUGGUGAAUUUGCGAAUUCUGCUGU, the self-cleavage amounted to 0.182.

With GGGGGCCACAGCAGAAGCGCUCACGUCGCGGCCCCUGUCAGAUUCUGGUGAAUGUGCGAAUUCUGCUGU, the self-cleavage turned out to be 0.206.

On to GGGGGCCACAGCAGAAGCGAUCACGUCGCGGCCCCUGUCAGAUUCUGGUGAAUCUGCGAAUUCGGCUGU, for which the self-cleavage worked out at 0.11.

As for GGGGGCCACAGCAGAAGCGAUCACGUCGCGGCCCCUGUCAGAUUCUGGUGAAUCUGCGAAUUCAGCUGU, the self-cleavage is 0.326.

Regarding GGGGGCCACAGCAGAAGCGAUCACGUCGCGGCCCCUGUCAGAUUCUGGUGAAUCUGCGAAUUCCGCUGU, the self-cleavage is 0.122.

Regarding GGGGGCCACAGCAGAAGCGAUCACGUCGCGGCCCCUGUCAGACUCUGGUGAAUCUGCGAAUUCUGCUGU, the self-cleavage came out at 0.154.

For the variant GGGGGCCACAGCAGAAGCGAUCACGUCGCGGCCCCUGUCAGAGUCUGGUGAAUCUGCGAAUUCUGCUGU, the self-cleavage came out at 0.123.

With GGGGGCCACAGCAGAAGCGCUCACGUCGUGGCCCCUGUCAGAUUCUGGUGAAUCUGCGAAUUCUGCUGU, the self-cleavage was 0.128.

Turning to GGGGGCCACAGCAGAAGCGCUCACGUCGAGGCCCCUGUCAGAUUCUGGUGAAUCUGCGAAUUCUGCUGU, the self-cleavage is 0.227.

As for GGGGGCCACAGCAGAAGCGCUCACGUCGCGGCCCCUGUCAGAUUAUGGUGAAUCUGCGAAUUCUGCUGU, the self-cleavage amounted to 0.219.

Turning to GGGGGCCACAGCAGAAGCGCUCACGUCGCGGCCCCUGUCAGAUUUUGGUGAAUCUGCGAAUUCUGCUGU, the self-cleavage turned out to be 0.201.

With GGGGGCCACAGCAGAAGCGCUCACGUCGCGGCCCCUGUCAGAUUGUGGUGAAUCUGCGAAUUCUGCUGU, the self-cleavage amounted to 0.217.

With GGGGGCCACAGCAGAAGCGCUCACGUCGCGGCCCCUGUCAGAUUCUGGUGAAUCUGCGAAUUAUGCUGU, the self-cleavage is 0.138.

GGGGGCCACAGCAGAAGCGCUCACGUCGCGGCCCCUGUCAGAUUCUGGUGAAUCUGCGAAUUGUGCUGU: the self-cleavage was determined as 0.162.

On to GGGGGCCACAGCAGAAGCGCUCACGUCGCGGCCCCUGUCAGAUUCUGGUGAAUCUGCGAAUUUUGCUGU, for which the self-cleavage was found to be 0.229.

Regarding GGGGGCCACAGCAGAAGCGAUCACGUCGCGGCCCCCGUCAGAUUCUGGUGAAUCUGCGAAUUCUGCUGU, the self-cleavage turned out to be 0.149.

Consider GGGGGCCACAGCAGAAGCGAUCACGUCGCGGCCCCGGUCAGAUUCUGGUGAAUCUGCGAAUUCUGCUGU, for which the self-cleavage stood at 0.201.

Turning to GGGGGCCACAGCAGAAGCGCUCACGUCGCGGCUCCUGUCAGAUUCUGGUGAAUCUGCGAAUUCUGCUGU, the self-cleavage stood at 0.219.

For the variant GGGGGCCACAGCAGAAGCGCUCACGUCGCGGCGCCUGUCAGAUUCUGGUGAAUCUGCGAAUUCUGCUGU, the self-cleavage came to 0.113.

In the case of GGGGGCCACAGCAGAAGCGCUCACGUCGCGGCACCUGUCAGAUUCUGGUGAAUCUGCGAAUUCUGCUGU, the self-cleavage is 0.286.

As to GGGGGCCACAGCAGAAGCGAUCACGUCGCGGCCCCUGUCAGAUUCUGGUGAAUCUGCGAAUUCUGCUGC, the self-cleavage came out at 0.225.

For the variant GGGGGCCACAGCAGAAGCGAUCACGUCGCGGCCCCUGUCAGAUUCUGGUGAAUCUGCGAAUUCUGCUGG, the self-cleavage came to 0.282.

Turning to GGGGGCCACAGCAGAAGCGCUCACGUCGCGGCCCCUGUGAGAUUCUGGUGAAUCUGCGAAUUCUGCUGU, the self-cleavage amounted to 0.201.

As to GGGGGCCACAGCAGAAGCGCUCACGUCGCGGCCCCUGUUAGAUUCUGGUGAAUCUGCGAAUUCUGCUGU, the self-cleavage came to 0.176.

In the case of GGGGGCCACAGCAGAAGCGCUCACGUCGCGGCCCCUGUAAGAUUCUGGUGAAUCUGCGAAUUCUGCUGU, the self-cleavage turned out to be 0.224.

In the case of GGGGGCCACAGCAGAAGCGCUCACGUCGCGGCCCCUGUCAGAUUCUGGUGAAUCUGCGAGUUCUGCUGU, the self-cleavage was 0.166.
